Data set [1] deals with Factor B depleted human serum spiked with human Factor B, rabbit or chicken RBCs. Nature of the data set: Factor B add-back hemolysis assay. The data set is classed as biochemical. To be noted: MTSP-1 scaffold, read-out: Hu fB Add-Back EC50. How it is done: Hemolysis assays were performed to evaluate the hemolytic activity of various lots of Factor B, a lot obtained from CompTech as compared to a lot expressed in-house. Briefly, Factor B depleted human serum was used, and plasma purified or recombinant human Factor B was used for the add-back. Rabbit red blood cells (RBCs) or chicken RBCs were washed in GVB/Mg/EGTA, and the depleted serum was spiked with Factor B. The RBC lysis was then monitored with CVF/FD/human Factor B convertase. These were analyzed to create standard curves from which the Factor B lots were compared. FIGS. 5-6 depict a bar graph of controls used for the hemolysis assay and the standard curves measured from the tested engineered proteases from the Factor B add-back hemolysis assay, respectively. […] This engineered protease was tested at two concentrations (samples 1 and 2). All references in this Example to engineered proteases are depicted in chymotrypsin numbering. The chymotrypsin numbering key for the modified protease domains of engineered proteases are found in Tables 2, 4, and 6 for uPA, MTSP-1, and chymase, respectively.

Data set [2] in a line: Baseline stability in indirect and MTSP buffer (+/-EDTA) and PBS at 37° C., peptide substrate EGVDAE-QF. The data set is classed as physicochemical. To be noted: indirect buffer pH 7.4, MTSP buffer. How it is done:
Further, various chymase-based engineered proteases were tested to evaluate their baseline stability, by testing the effects of indirect and MTSP buffer (+/−EDTA) on the chymase-based engineered proteases. The peptide substrate EGVDAE-QF (SEQ ID NO: 52) was used for these experiments.
FIGS. 4A-4E depict graphs showing the stability of five different chymase proteases tested using a peptide substrate, in PBS, at 37° C.

The test system of data set [3] is EGVD/AE-ACT (SEQ ID NO: 53). Briefly: Second order rate constant k*app with EGVD/AE-ACT serpin bait. In kind it is biochemical. The method, then:
Selected chymase-based engineered proteases were tested to measure the activity of these proteases, by using an active site titration method based on reaction with the inhibitory serpin bait, followed by HPLC analysis to quantitate the active fraction. All references in this Example, including Table 9, to engineered proteases are depicted in chymotrypsin numbering. See Table 6 for the chymotrypsin numbering key for the modified protease domain of chymase. The HPLC analysis detects a shift in the measured peak when the serpin bait is present, an indication that the protease is binding the bait and therefore active. Briefly, a working concentration of 24 μM of serpin bait was prepared from stock solution, with 50 μM of low molecular weight heparin for antithrombin (AT)-based baits. Protease solutions were prepared by using 30 μL of a 5 μM working solution. Reaction mixtures were incubated for 2 hours at 37° C., and each reaction mixture (protease alone or protease with bait) was analyzed by HPLC using standard protocols. All protease alone samples were run first, then followed by the protease with serpin bait samples. A summary of the results for the proteases tested is summarized in Table 9 below. kcat/Km was measured using EGVD/AE-QF (SEQ ID NO: 52) and second order rate constant K*app was measured using EGVD/AE-ACT (SEQ ID NO: 53).

The target in data set [4] is T1, Human Factor B (Homo sapiens, UniProt P00751). Nature of the data set: Human Factor B cleavage EC50 in 80% human plasma (Table 10A). The data set is classed as biochemical. How it is done:
Cleavage of Factor B by various engineered proteases was evaluated. Engineered chymase-, MTSP-1-, and uPA-based proteases were tested. All references in this Example, including Tables 10A, 10B, 11A, and 11B, to engineered proteases are depicted in chymotrypsin numbering. The chymotrypsin numbering key for the modified protease domains of engineered proteases are found in Tables 2, 4, and 6 for uPA, MTSP-1, and chymase, respectively. These experiments were also performed to evaluate the stability of non-naturally occurring chymases in various media, including cynomolgus monkey vitreous humor, human plasma, and phosphate buffered saline (PBS). Briefly, Factor B was diluted into an assay buffer and incubated at 37° C. with naturally occurring (wild type) and non-naturally occurring (engineered) proteases in vitreous humor, plasma, or PBS, and the reactions were quenched with HCl at various time points. The time points tested for chymase include T=0 which used 6 hours pre-incubation, T=2 hours which used 4 hours pre-incubation, T=4 hours which used 2 hours pre-incubation, and T=6 hours which used 0 hours pre-incubation. Assaying of the sample was performed with ELISA, or alpha screen for human C3 cleavage, using standard protocols.
A summary of the results is presented in Tables 10A-10B below, showing the various tested proteases, the concentration of the protease used in nM and the EC50 of human Factor B cleavage. Table 10 presents human Factor B cleavage by various non-naturally occurring chymase-based engineered proteases, tested in 80% human plasma, compared against a chymase comprising the mutation string […]. Blank cells indicate that a test was not performed for a particular protease mutation string.

The nature of data set [5]: Second order rate constant (k*) for inhibition by plasma, extrapolation of half-life in 100% plasma. The data set is classed as in vitro ADME. How it is done: Briefly, a baseline chymase having the modifications C22S/A226R was used. The concentration of the baseline chymase and the tested chymase-based engineered proteases, listed in Table 11B below, were used at 50 nM, and another tested chymase C22S/L99R/F173Y/K192R/S218L/A226R was used at 25 nM. For the baseline chymase, a time course of protease activity in the presence of plasma was measured using 4.2 uM CPQ2-ITLLSA-K(5FAM)-K-PEG8-K(biotin)-NH2 (SEQ ID NO: 17)/21 uM Neutravidin at 37° C.

In another data set the test system is serpins. Nature of the data set: Serpin inhibition tests of chymase-based engineered proteases. In kind it is biochemical. The method, then: Inhibition tests were carried out using chymase-based engineered proteases. Various serpins, which are capable of inhibiting protease activity, were used to test whether these could be used for adequate inhibition of the tested chymase-based engineered proteases, to enable selection of an engineered protease resistant to inhibition in plasma. All references in this Example to engineered proteases are depicted in chymotrypsin numbering. The chymotrypsin numbering key for the modified protease domains of engineered proteases are found in Tables 2, 4, and 6 for uPA, MTSP-1, and chymase, respectively.

Data set [6] can be described thus: Half-life in 50% human plasma of chymase-based engineered proteases. The data set is classed as in vitro ADME. To be noted: EGVD′AE substrate. How it is done: Table 10B presents human Factor B cleavage by various engineered chymase-, MTSP-1-, or uPA-based proteases, tested in mouse or human plasma. For ELISA analysis of Factor B cleavage, briefly, anti-Ba was used, and Bb was detected with anti-Bb. A dynamic range of 25-1600 pM was used. Half-life in 50% human plasma was also calculated for various chymase-based engineered proteases.

The target in data set [7] is T1, Human Factor B. Nature of the data set: Human Factor B cleavage EC50 in 80% human plasma (Table 10A). The data set is classed as biochemical. To be noted: chymase-based; 64% plasma; read-out: fB Cleavage, 64% plasma EC50.
Setting [8] is: Plasma Inhibitor: alpha-2-marcroglobin (A2M).
Where [9] appears, read: Plasma Inhibitor: plasma antichymotrypsin (plasma ACT).

Where a chain is given by its changes, count along the chain named. Names and notes keep the numbering of the source. Values joined by “and” are separate entries in the source; they are usually repeats but may differ in a detail not shown here. Equal entries are not always repeated. Where two headings read alike, the source gives them in different places.

T1 sequence (P00751 26-764): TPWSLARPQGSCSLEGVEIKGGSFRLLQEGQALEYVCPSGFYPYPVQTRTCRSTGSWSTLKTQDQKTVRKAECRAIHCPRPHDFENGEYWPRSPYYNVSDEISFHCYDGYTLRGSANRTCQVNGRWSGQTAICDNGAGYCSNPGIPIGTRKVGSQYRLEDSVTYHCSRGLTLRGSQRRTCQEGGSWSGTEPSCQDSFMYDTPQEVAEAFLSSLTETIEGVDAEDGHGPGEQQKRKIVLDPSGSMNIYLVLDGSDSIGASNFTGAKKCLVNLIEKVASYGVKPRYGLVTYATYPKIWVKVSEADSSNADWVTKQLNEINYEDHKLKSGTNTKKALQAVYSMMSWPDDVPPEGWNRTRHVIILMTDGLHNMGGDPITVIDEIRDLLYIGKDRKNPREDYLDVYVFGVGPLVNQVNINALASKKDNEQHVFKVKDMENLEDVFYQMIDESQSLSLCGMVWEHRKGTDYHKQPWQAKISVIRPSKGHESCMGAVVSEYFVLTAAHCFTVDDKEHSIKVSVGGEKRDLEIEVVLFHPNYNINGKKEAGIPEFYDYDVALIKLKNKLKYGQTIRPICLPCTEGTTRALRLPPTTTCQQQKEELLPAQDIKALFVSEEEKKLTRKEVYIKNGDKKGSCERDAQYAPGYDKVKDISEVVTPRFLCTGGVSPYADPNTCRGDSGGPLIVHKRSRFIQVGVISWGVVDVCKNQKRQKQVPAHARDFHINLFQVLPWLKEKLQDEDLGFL

B1: MTSP-1 (protein, listed as Homo sapiens)
chain: VVGGTDADEGEWPWQVSLHALGQGHICGASLISPNWLVSAAHCYIDDRGFRYSDPTQWTAFLGLHDQSQRSAPGVQERRLKRIISHPFFNDFTFDYDIALLELEKPAEYSSMVRPICLPDASHVFPAGKAIWVTGWGHTQYGGTGALILQKGEIRVINQTTCENLLPQQITPRMMCVGFLSGGVDSCQGDSGGPLSSVEADGRIFQAGVVSWGDGCAQRNKPGVYTRLPLFRDWIKENTGV
For B1, the figures for the EC50 in data set [1] ([Protease]high 400 nM) and in data set [1] ([Protease]high 4000 nM) were 32.2 nM and 37.3 nM, respectively.

B2: Wild type or naturally occurring chymase: wild type human mast cell chymase protease domain (SEQ ID NO: 6) (protein, listed as Homo sapiens)
chain: IIGGTECKPHSRPYMAYLEIVTSNGPSKFCGGFLIRRNFVLTAAHCAGRSITVTLGAHNITEEEDTWQKLEVIKQFRHPKYNTSTLHHDIMLLKLKEKASLTLAVGTLPFPSQFNFVPPGRMCRVAGWGRTGVLKPGSDTLQEVKLRLMDPQACSHFRDFDHNLQLCVGNPRKTKSAFKGDSGGPLLCAGVAQGIVSYGRSDAKPPAVFTRISHYRPWINQILQAN
On to B2, for which, in data set [2], the “stability (remaining activity) in buffers, peptide substrate” value is reported as “loss of activity in all buffers”.

B3: C22S/A226R: chymase-based engineered protease, baseline chymase (protein, listed as Homo sapiens)
chain: B2 chain with C7S, A207R
With B3, the “k*app EGVD/AE-ACT (SEQ ID NO: 53)” value in data set [3] is on record as 77. In the data set with Human Factor B [4] (chymase-based, 80% human plasma), the “fB Cleavage, 80% plasma EC50 (nM)” value was “none”. The “calculated t1/2 (in 100% plasma)” value in data set [5] (extrapolated from k*) was 1.58 min. In addition, the “k*” value in data set [5] (inhibition by plasma, 37° C.) is listed as 7.32E−5 %^−1s^−1. Also, the kapp in the data set with serpins (Plasma Inhibitor: ACT) amounted to 1045 M⁻¹ s⁻¹; in the data set on serpins (setting [8]) it was 812 M⁻¹ s⁻¹.

B4: C22S/F173Y/D175N/A226R: chymase-based engineered protease (protein, listed as Homo sapiens)
chain: B2 chain with C7S, F157Y, D159N, A207R
For the molecule B4, the EC50 is 170 nM with Human Factor B [4] (Table 20, cleavage activity as of Table 10, unit inferred, read-out: EC50 Fb Cleavage); 151 to 182 nM and 177 nM in the data set with Human Factor B [4] (chymase-based engineered proteases, no plasma stated, read-out: fB Cleavage EC50); 6000 nM and 5620 nM in the data set with Human Factor B [7]. Also, the “t1/2 in 50% human plasma (min) (EGVD′AE)(SEQ ID NO: 13)” value in data set [6] was 7.3 min and 9.0 min. In addition, the kapp was 428 M⁻¹ s⁻¹ with serpins (Plasma Inhibitor: ACT) and 645 M⁻¹ s⁻¹ in the data set with serpins (setting [8]).

B5: F41V/L99H/G151V/F173Y/Y215K/R217G/A226R: chymase-based engineered protease (protein, listed as Homo sapiens)
chain: B2 chain with F29V, L86H, G137V, F157Y, Y198K, R200G, A207R
As for B5, the “k*app EGVD/AE-ACT (SEQ ID NO: 53)” value in data set [3] came out at 649.

B6: C22S/A190S/A226R (protein, listed as Homo sapiens)
chain: B2 chain with C7S, A177S, A207R
B6: the “t1/2 in 50% human plasma (min) (EGVD′AE)(SEQ ID NO: 13)” value in data set [6] is recorded as 4.2 min. For the same molecule, the kapp in the data set on serpins (setting [9]) worked out at 1599 M⁻¹ s⁻¹.

B7: C22S: chymase-based engineered protease, chymotrypsin numbering (protein, listed as Homo sapiens)
chain: B2 chain with C7S
As to B7, in data set [3], the “k*app EGVD/AE-ACT (SEQ ID NO: 53)” value came to 30.2. Also, the kapp in the data set with serpins (setting [9]) came to 31166 M⁻¹ s⁻¹.

The term EC50 denotes the midpoint of the concentration-response curve.
